# Assay results published in paper PMC7842947.
# Biological target: chondroitin sulfate proteoglycan 4 (CSPG4), endogenous on HeLa cells (human (endogenous in HeLa)) (UniProt Q6UVK1)
# UniProt Q6UVK1, sequence (Q6UVK1 30-2322): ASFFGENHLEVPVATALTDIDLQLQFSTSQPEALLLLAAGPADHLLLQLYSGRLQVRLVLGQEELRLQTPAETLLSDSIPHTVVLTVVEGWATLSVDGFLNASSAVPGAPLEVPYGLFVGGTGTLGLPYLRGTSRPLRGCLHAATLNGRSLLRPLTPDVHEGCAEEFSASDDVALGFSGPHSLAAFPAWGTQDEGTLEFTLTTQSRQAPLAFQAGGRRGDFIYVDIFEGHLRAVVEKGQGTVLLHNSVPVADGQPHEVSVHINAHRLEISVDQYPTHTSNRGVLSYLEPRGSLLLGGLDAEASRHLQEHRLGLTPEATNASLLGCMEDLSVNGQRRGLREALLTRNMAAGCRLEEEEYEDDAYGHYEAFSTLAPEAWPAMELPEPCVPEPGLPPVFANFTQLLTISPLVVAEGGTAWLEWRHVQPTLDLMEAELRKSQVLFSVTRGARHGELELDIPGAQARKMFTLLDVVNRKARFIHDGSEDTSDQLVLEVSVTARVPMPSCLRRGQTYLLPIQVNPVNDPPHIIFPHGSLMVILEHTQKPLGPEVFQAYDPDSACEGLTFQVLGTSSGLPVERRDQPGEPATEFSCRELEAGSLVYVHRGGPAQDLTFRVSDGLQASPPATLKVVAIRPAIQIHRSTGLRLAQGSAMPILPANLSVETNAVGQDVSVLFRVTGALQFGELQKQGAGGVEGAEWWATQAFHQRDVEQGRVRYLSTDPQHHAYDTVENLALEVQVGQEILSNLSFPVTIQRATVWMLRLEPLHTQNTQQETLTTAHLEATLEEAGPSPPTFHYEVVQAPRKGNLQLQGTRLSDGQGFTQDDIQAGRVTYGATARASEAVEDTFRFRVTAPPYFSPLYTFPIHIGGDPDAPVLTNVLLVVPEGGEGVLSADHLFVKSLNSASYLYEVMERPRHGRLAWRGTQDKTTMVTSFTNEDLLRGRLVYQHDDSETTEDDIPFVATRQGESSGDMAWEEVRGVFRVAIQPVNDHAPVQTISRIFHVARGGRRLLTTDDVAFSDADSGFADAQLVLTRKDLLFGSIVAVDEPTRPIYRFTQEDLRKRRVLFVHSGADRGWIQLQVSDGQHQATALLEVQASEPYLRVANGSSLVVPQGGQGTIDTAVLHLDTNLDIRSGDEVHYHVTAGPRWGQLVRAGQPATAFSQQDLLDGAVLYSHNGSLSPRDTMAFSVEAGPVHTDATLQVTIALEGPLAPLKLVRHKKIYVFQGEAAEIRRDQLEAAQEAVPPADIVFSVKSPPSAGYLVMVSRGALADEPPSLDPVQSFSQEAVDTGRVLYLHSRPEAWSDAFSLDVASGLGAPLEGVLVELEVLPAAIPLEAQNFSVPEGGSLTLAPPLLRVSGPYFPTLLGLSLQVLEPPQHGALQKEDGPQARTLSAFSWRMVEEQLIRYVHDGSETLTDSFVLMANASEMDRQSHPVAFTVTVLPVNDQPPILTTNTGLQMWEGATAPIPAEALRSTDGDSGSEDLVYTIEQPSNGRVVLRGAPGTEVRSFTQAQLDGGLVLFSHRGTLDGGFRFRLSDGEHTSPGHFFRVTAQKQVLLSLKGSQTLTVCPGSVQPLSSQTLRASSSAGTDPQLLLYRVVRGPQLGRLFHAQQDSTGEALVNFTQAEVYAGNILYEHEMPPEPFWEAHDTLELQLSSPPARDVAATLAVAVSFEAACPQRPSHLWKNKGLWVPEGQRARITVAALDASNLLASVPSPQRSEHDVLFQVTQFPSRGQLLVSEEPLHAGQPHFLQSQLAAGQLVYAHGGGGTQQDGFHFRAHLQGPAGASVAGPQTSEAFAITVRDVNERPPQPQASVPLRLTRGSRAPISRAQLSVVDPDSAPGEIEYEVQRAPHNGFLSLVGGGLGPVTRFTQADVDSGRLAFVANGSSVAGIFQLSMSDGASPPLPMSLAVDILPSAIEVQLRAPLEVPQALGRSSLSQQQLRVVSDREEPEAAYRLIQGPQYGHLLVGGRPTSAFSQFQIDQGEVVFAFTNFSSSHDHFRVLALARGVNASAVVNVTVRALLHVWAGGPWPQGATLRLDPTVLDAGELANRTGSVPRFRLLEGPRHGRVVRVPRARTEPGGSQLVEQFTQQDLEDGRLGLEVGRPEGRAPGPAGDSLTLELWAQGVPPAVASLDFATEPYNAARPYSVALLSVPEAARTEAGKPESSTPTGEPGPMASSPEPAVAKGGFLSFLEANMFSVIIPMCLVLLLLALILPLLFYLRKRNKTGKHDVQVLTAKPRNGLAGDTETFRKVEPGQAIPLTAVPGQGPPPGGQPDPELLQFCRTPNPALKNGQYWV
substance,measurement,value
"Clostridioides difficile toxin B variant 2 (TcdB2), full length, reference sequence from strain CD196 (natural protein)","CR50, cytopathic cell-rounding assay on HeLa FZD1/2/7-/- cells",0.06 pM
